Results taken from article PMC2877719.

Tests used:
[1] = biological target: full-length hEAG1 mutated in BD-N (F151S, A152S) labeled with Cerulean (human) (UniProt O95259); assay: FRET or BRET; acceptor photobleaching FRET in co-transfected HEK-293 cells; Cerulean on hEAG1 (donor), YFP on CaM (acceptor); 1 uM ionomycin in Ringer solution with 1.8 mM CaCl2 (+Ca2+), 10 min at 37 C, then fixed with 4% formaldehyde
[2] = biological target: full-length hEAG1 with mutated BD-C2 (F714S, F717S) labeled with Cerulean (human) (UniProt O95259); assay: as above
[3] = biological target: full-length hEAG1 labeled with Cerulean (human) (UniProt O95259); assay: as above
[4] = biological target: C-terminus of hEAG1 (M478-S962) labeled with Cerulean (human) (UniProt O95259); assay: as above
[5] = biological target: full-length hEAG1 with mutated BD-C2 (F714S, F717S) labeled with Cerulean (human) (UniProt O95259); assay: FRET or BRET; acceptor photobleaching FRET in co-transfected HEK-293 cells; Cerulean on hEAG1 (donor), YFP on CaM (acceptor); 1 uM ionomycin in Ca2+- and Mg2+-free Ringer solution with 1 mM EGTA (-Ca2+), 10 min at 37 C, then fixed with 4% formaldehyde
[6] = biological target: full-length hEAG1 labeled with Cerulean (human) (UniProt O95259); assay: as above

full-length hEAG1 with mutated BD-C2 (F714S, F717S) labeled with Cerulean (human), sequence (O95259 other isoform, or with tags, fused parts or gaps F714S | F717S | F714S F717S): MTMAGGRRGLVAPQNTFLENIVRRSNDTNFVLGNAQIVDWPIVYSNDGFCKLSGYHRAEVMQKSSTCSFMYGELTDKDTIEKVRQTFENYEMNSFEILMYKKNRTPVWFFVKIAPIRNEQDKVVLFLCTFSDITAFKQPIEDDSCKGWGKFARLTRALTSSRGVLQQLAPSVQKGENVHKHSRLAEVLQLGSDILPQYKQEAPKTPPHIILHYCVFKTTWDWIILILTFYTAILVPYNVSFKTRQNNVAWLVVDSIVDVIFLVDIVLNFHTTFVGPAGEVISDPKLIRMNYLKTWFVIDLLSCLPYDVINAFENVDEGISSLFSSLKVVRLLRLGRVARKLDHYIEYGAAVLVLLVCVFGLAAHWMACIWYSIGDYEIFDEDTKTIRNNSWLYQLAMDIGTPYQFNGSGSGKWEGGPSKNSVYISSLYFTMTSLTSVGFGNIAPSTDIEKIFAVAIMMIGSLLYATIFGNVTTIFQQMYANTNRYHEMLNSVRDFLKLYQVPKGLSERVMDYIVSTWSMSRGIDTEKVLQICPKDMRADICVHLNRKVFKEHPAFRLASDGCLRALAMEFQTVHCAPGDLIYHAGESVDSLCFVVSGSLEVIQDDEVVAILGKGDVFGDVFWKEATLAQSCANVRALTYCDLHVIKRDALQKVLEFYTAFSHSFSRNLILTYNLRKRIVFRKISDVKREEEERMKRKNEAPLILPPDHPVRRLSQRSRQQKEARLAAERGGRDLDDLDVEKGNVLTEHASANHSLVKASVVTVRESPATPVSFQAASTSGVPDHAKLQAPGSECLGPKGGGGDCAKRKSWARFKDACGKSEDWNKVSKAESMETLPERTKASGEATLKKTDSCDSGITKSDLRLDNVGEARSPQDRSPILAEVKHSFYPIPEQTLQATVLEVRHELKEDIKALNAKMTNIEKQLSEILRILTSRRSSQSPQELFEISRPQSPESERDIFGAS
full-length hEAG1 labeled with Cerulean (human), sequence (O95259 other isoform, or with tags, fused parts or gaps): as the sequence (O95259 other isoform, or with tags, fused parts or gaps F714S | F717S | F714S F717S) above, with S714F, S717F counted along it
full-length hEAG1 mutated in BD-N (F151S, A152S) labeled with Cerulean (human), sequence (O95259 other isoform, or with tags, fused parts or gaps F151S | A152S | F151S A152S): as the sequence (O95259 other isoform, or with tags, fused parts or gaps F714S | F717S | F714S F717S) above, with F151S, A152S, S714F, S717F counted along it
C-terminus of hEAG1 (M478-S962) labeled with Cerulean (human), sequence (O95259 505-989): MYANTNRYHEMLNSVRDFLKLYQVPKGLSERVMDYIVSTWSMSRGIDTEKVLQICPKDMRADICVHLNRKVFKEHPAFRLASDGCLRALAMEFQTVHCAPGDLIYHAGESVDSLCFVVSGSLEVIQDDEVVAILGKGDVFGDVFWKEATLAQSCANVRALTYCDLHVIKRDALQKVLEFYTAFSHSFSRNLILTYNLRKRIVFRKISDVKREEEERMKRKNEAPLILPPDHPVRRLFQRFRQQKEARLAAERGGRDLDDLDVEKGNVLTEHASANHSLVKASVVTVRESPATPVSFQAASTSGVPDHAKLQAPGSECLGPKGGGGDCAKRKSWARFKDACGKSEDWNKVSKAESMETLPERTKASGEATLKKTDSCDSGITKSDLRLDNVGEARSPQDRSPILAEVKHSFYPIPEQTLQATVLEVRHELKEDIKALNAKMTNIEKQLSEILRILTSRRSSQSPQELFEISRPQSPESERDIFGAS

With “N-terminally YFP-labeled calmodulin (rat calmodulin II) (from UniProt P0DP30 1-149) (natural protein)” the FRET efficiency [1] was 9.8%, the FRET efficiency [2] was 8.7% and the FRET efficiency [3] was 17%. For the same substance, the mean FRET efficiency [4] was 9.5%, the FRET efficiency [5] was 11.5% and the FRET efficiency [6] was 10.1%.
